From PMC2610489 (Developmental cell, 2008)

Target: T1, Homothorax (Hth) (Drosophila, UniProt O46339 1-487)
T1 sequence (looked up): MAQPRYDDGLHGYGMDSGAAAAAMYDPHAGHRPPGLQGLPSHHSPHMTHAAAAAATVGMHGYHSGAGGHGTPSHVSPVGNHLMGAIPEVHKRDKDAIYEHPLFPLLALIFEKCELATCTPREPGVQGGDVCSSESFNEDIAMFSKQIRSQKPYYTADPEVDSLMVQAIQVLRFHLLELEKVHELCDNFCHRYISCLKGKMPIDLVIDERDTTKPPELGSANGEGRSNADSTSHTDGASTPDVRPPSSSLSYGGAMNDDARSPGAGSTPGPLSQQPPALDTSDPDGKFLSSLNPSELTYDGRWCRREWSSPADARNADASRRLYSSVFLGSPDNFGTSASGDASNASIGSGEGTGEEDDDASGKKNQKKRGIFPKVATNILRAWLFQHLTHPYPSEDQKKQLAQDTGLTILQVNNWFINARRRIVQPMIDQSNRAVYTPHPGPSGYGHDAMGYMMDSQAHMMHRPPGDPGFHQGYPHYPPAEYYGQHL
Experiment: native gel or EMSA

B1: Extradenticle (Exd) (natural protein, Drosophila, UniProt P40427 1-376, looked up)
chain: MEDPNRMLAHTGGMMAPQGYGLSGQDDGQNAGSENEVRKQKDIGEILQQIMSISEQSLDEAQARKHTLNCHRMKPALFSVLCEIKEKTVLSIRNTQEEEPPDPQLMRLDNMLIAEGVAGPEKGGGGAAAASAAAASQGGSLSIDGADNAIEHSDYRAKLAQIRQIYHQELEKYEQACNEFTTHVMNLLREQSRTRPITPKEIERMVQIIHKKFSSIQMQLKQSTCEAVMILRSRFLDARRKRRNFSKQASEILNEYFYSHLSNPYPSEEAKEELARKCGITVSQVSNWFGNKRIRYKKNIGKAQEEANLYAAKKAAGASPYSMAGPPSGTTTPMMSPAPPQDSMGYPMGSGGYDQQQPYDNSMGGYDPNLHQDLSP
**Q.** Does B1 bind?
**A.** Result: binds
